Earlier results, collected in publication PMC12083247.

Experiments:
calpain (Homo sapiens) = calpain (Homo sapiens) (UniProt P07384)
S100A10 (Homo sapiens) = S100A10 (Homo sapiens) (UniProt P60903)
UniProt P60903, sequence (P60903 whole entry): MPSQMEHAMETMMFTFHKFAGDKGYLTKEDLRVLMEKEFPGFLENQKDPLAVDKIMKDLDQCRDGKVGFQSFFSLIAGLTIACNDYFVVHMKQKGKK

UniProt P07384, sequence (P07384 2-714): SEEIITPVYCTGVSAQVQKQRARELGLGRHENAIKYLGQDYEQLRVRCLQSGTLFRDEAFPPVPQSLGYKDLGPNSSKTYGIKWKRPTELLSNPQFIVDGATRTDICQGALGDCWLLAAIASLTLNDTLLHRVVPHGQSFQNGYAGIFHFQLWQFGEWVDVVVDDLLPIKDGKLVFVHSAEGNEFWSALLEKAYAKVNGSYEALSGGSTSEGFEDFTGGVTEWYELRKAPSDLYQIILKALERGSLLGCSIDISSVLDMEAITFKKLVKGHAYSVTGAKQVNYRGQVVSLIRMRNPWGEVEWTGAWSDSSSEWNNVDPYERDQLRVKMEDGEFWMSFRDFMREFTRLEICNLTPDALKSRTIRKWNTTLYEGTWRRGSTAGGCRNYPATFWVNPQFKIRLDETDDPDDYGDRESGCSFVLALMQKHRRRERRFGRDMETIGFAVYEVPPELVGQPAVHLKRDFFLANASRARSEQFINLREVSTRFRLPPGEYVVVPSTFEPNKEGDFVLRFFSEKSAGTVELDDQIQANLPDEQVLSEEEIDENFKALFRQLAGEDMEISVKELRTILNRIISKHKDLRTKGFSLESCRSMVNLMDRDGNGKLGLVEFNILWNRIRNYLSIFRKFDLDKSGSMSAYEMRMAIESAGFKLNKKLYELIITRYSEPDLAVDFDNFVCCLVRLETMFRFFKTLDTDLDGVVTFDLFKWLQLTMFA

Ki (calpain (Homo sapiens)) | Kd (S100A10 (Homo sapiens)) | Substance
15 nM | – | calpastatin domain I (from UniProt P20810)
– | 13 nM | annexin A2 N-terminal 10-12 residues (from UniProt P07355)
